Our source for the activity values is patent publication US20040039175.

This data set deals with HIV-AB-KOX (synthetic construct). Nature of the data set: cell_activity. Conditions: LTR-luciferase, Jurkat, Tat+PMA+PHA.

“AGCTTTCTACAAGGGACTTTCCGCTGGGGACTTTCCAGGGAGGCGTGGCCTGGGCGGGACTGGGGAGTGGCGTCCCTCAGATGCTGCATATAAGCAGCTGCTTTTTGCCTGTACTGGGTCTCTCTGGTTAGACCAGATCTGAGCCTGGGAGCTCTCTGGCTAACTAGGGAACCC (double strand) [HIV-1 LTR reporter]”: the activity turned out to be 96 % inhibition.
